Results published in FireProtDB (doi:10.1021/bi301421v).
Where “and” joins values, the source holds several entries; their conditions need not be identical. Equal entries are not always repeated.

Details: Helicobacter pylori (strain ATCC 700392 / 26695); pH 7.2; Thermal; CD; Tris-HCl 20 mM; transition: 2; reversible: yes; whole UniProt chain shown

B1: Arginase wild type, O25949 (protein)
chain: MILVGLEAELGASKRGTDKGVRRLREALSATHGDVIKGMQTITQERCVLYKEFRYAKNFEDYYLFCKENLIPCMKEVFEKKEFPLILSSEHANMFGIFQAFRSVHKDKKIGILYLDAHADIHTAYDSDSKHIHGMPLGMVLNRVRSGFNRMSESEEKAWQKLCSLGLEKGGLEIDPKCLVYFGVRSTEQSERDVIRELQIPLFSVDAIRENMQEVVQKTKESLKAVDIIYLSLDLDIMDGKLFTSTGVRENNGLSFDELKQLLGLLLESFKDRLKAVEVTEYNPTVSIKHNNEEEKQVLEILDLIINSCKIKDKKHSFARSY
For B1, the Tm was 70 °C and 68 °C.
